These results are taken from CN111944047A (CHONGQING PREC BIOTECH CO LTD, dated 2020).

This test deals with T1, hBCMA-hFc (human, UniProt Q02223 1-54, limits assumed).
T1 construct: not shown: human Fc (hFc)
T1 sequence (looked up): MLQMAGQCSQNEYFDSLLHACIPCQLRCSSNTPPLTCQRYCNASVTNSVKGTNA
Kind of test: Fortebio Octet K2 / Nicoya OpenSPR, hBCMA-hFc loaded on sensor, scFv in solution. A general note: BLI is a label-free optical method that tracks binding on a fibre tip over time.

For orientation: Kd means the constant that tells how readily two partners part at equilibrium. Read a high Kd as lower affinity. Usually koff stands for a measure of how fast the partners let go of each other. A high value points to fast dissociation. One may read the kon as the second-order rate constant of association. A low value points to slower complex formation.

B1: ScFv2 (scFv)
scFv: DIVLTQSPASLAVSLGQRATITCRASESVSIHGTHLMHWYQQKPGQPPVLVIYAASNLESGVPARFSGSGSGTDFTLKIHPVEAEDVGVYYCQQSIEDPRTFGGGTKLEIKGSTSGSGKPGSGEGSTKGQVQLVQSGPEVKKPGASVKVSCKASGYTFTDYYMNWVRQMHGKGLEWMGVINPYNGGTDYNQKFKGRVTITADKSTSTAYMELSSLRSEDTAVYYCARSVYDYPFDYWGQGTLVTVSS
notes: also called 人源化ScFv2; 靶向BCMA人源化单克隆抗体
Take B1: the Kd is 16.4 nM, the off-rate (koff) came out at 0.00437 s⁻¹ and the kon was 266000 M⁻¹ s⁻¹.

B2: ScFv1 (scFv)
scFv: DIVMTQSPDSLAVSLGERATINCRASESVSIHGTHLMHWYQQLPGTPPKLLIYAASNLESGVPDRFSGSGSGTDFTLKISPVEAEDVGVYYCQQSIEDPRTFGGGTKLEIKGSTSGSGKPGSGEGSTKGQVQLVQSGPALVKPGASVKVSCKASGYTFTDYYMNWVRQAHGQGLEWMGVINPYNGGTDYNQKFKGRVTMTRDTSISTAYMELSSLRSEDTAVYYCARSVYDYPFDYWGQGTLVTVSS
notes: The scFv is VL-Linker-VH, expressed in CHO cells and purified; Any tag on the purified protein is not described for ScFv1; also called 靶向BCMA人源化单克隆抗体; 抗BCMA的人源化单链抗体
On to B2, for which the Kd is 4.65 nM, the koff was found to be 0.000438 s⁻¹ and the kon was 94200 M⁻¹ s⁻¹.
